Results as given in patent US20230183713A1, “SITE-SPECIFIC RECOMBINASES FOR EFFICIENT AND SPECIFIC GENOME EDITING” (TECHNISCHE UNIVERSITÄt DRESDEN, published 2023).
Numbering of substitutions follows the chain as printed. Numbers in names are those of the source.

What was measured:
[1] = molecular target: T1, Cre recombinase monomer with W315R mutation
T1 chain: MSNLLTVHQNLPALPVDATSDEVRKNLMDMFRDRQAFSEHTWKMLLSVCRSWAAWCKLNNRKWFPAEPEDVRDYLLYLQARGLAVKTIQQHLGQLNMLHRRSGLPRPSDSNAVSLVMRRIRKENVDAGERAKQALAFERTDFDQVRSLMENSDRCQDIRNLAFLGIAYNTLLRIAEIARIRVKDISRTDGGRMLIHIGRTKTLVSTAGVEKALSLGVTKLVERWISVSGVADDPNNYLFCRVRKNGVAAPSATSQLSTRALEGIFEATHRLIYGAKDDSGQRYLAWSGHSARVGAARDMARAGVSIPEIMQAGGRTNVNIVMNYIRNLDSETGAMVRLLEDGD

[2] = molecular target: T2, Cre recombinase monomer with Q311R mutation
T2 chain: T1 chain with Q311R, R315W

[3] = molecular target: T3, Cre recombinase monomer with K201I mutation
T3 chain: T1 chain with K201I, R315W

[4] = molecular target: T4, Cre recombinase monomer with W315T mutation
T4 chain: T1 chain with R315T

[5] = molecular target: T5, Cre recombinase monomer with K201R mutation
T5 chain: T1 chain with K201R, R315W

[6] = molecular target: T6, Cre recombinase monomer with Y324C mutation
T6 chain: T1 chain with R315W, Y324C

[7] = molecular target: T7, Cre recombinase monomer with Y324F mutation
T7 chain: T1 chain with R315W, Y324F

[8] = molecular target: T8, Cre recombinase monomer with R292G mutation
T8 chain: T1 chain with R292G, R315W

[9] = molecular target: T9, Cre recombinase monomer with W315I mutation
T9 chain: T1 chain with R315I

[10] = molecular target: T10, Cre recombinase monomer with K201N mutation
T10 chain: T1 chain with K201N, R315W

[11] = molecular target: T11, Cre recombinase monomer with W315N mutation
T11 chain: T1 chain with R315N

[12] = molecular target: T12, Vika recombinase monomer with Q330R mutation
T12 chain: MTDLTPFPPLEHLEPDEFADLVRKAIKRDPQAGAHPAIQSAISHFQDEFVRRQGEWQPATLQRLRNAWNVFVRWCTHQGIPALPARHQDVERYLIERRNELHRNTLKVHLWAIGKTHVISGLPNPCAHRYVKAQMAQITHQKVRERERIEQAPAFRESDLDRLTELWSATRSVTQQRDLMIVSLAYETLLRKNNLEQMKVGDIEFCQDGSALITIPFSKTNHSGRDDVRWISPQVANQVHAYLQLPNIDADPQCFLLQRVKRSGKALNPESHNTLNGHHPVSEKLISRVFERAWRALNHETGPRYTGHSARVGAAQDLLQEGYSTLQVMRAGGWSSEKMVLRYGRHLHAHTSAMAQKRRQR

B1: Cre recombinase monomer with K201F mutation (protein)
chain: T1 chain with K201F, R315W
[1]
  Median dimer activity (recombination on loxP): 29%
[2]
  Median dimer activity (recombination on loxP): 94%
[3]
  Median dimer activity (recombination on loxP): 72%
[4]
  Median dimer activity (recombination on loxP): 41%
[5]
  Median dimer activity (recombination on loxP): 59%
[6]
  Median dimer activity (recombination on loxP): 98%
[7]
  Median dimer activity (recombination on loxP): 54%

B2: Cre double mutant CreK201R+Q311R (both mutations in the same monomer) (protein)
chain: T1 chain with K201R, Q311R, R315W
other
  recombination on loxP excision substrate in E. coli: showed no observable recombination of the loxP target sequence

B3: Cre recombinase monomer with K201Q mutation (protein)
chain: T1 chain with K201Q, R315W
[2]
  Median dimer activity (recombination on loxP): 94%
[8]
  Median dimer activity (recombination on loxP): 58%
[9]
  Median dimer activity (recombination on loxP): 30%

B4: Cre recombinase monomer with E129R mutation (protein)
chain: T1 chain with E129R, R315W
[2]
  Median dimer activity (recombination on loxP): 93%
[10]
  Median dimer activity (recombination on loxP): 35%
[5]
  Median dimer activity (recombination on loxP): 26%
[11]
  Median dimer activity (recombination on loxP): 30%

B5: Vika recombinase monomer with K219R mutation (protein)
chain: T12 chain with K219R, R330Q
[12]
  recombination on vox excision substrate in E. coli: A similar activity profile (although with some loss of activity) was seen when Vika^K219R and Vika^Q330R were co-expressed on the vox target sequence
